Paper PMC12362409

Experiments:
TRAF2 = TRAF2 (UniProt Q12933); assay: anti-Myc co-IP, Flag immunoblot; conditions: reference: wild type mMAVS; sites S186,S220
TRAF3 = TRAF3 (UniProt Q13114); assay: anti-Myc co-IP, Flag immunoblot; conditions: reference: wild type mMAVS; sites S186,S220

mouse MAVS (mMAVS) (from UniProt Q8VCF0) S186A/S220A (2SA)
binding against the reference (TRAF2): weaker
binding against the reference (TRAF3): weaker
